Where a chain is given by its changes, count along the chain named. Names and notes keep the numbering of the source.
T1: FcγRIIb extracellular domain with C-terminal His tag (human, UniProt P31994 43-217)
T1 construct: extracellular domain; Soluble receptor expressed in FreeStyle293 cells, used as analyte in Biacore; also called FcgRIIb; CD32B; not shown: His tag at the C terminus
T1 sequence (looked up): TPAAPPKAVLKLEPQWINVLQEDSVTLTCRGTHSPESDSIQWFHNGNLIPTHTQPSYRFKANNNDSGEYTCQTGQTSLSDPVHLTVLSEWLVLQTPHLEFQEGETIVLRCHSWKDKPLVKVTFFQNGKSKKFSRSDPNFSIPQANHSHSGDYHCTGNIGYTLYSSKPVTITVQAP

T2: FcgRIIb (human, UniProt P31994 43-217)
T2 construct: extracellular domain; also called FcγRIIb; not shown: His tag attached to the C terminus
T2 sequence (looked up): T1 sequence (looked up)

B1: GpH7-A5/GpH7-B3 variant P238_12R/GpL16-k0 (antibody, human IgG1, kappa)
heavy 1: not shown
heavy 2: not shown
light: DIVMTQSPLSLPVTPGEPASISCQASESLVHSNRNTYLHWYLQKPGQSPQLLIYKVSNRFSGVPDRFSGSGSGTDFTLKISRVEAEDVGVYYCSQNTHVPPTFGQGTKVEIERTVAAPSVFIFPPSDEQLKSGTASVVCLLNNFYPREAKVQWKVDNALQSGNSQESVTEQDSKDSTYSLSSTLTLSKADYEKHKVYACEVTHQGLSSPVTKSFNRGEC
notes: Heterodimerized anti-glypican-3 IgG1; substitution in only one H chain; also called P238R; He Ab
B2: GpH7-A5/GpH7-B3 variant P238_13S/GpL16-k0 (antibody, human IgG1, kappa)
heavy 1: not shown
heavy 2: not shown
light: B1 light
notes: Heterodimerized anti-glypican-3 IgG1; substitution in only one H chain; also called P238S; He Ab
B3: GpH7-A5/GpH7-B3 variant G237_12R/GpL16-k0 (antibody, human IgG1, kappa)
heavy 1: not shown
heavy 2: not shown
light: B1 light
notes: Heterodimerized anti-glypican-3 IgG1; substitution in only one H chain; also called G237R; He Ab
B4: H240-Kn061 (Y234S)/H240-Hl071/L73-k0 (antibody, human IgG1, kappa)
heavy 1: QDQLVQSGAEVKKPGASVKVSCKASGFNIKDTYIQWVRQAPGQGLEWMGRIDPLRKQTKYREKFEGRVTITADTSTNTAYMELSSLRSEDTAVYYCVRSGREFDYWGQGTLVTVSSASTKGPSVFPLAPSSKSTSGGTAALGCLVKDYFPEPVTVSWNSGALTSGVHTFPAVLQSSGLYSLSSVVTVPSSSLGTQTYICNVNHKPSNTKVDKKVEPKSCDKTHTCPPCPAPESYWGPSVFLFPPKPKDTLMISRTPEVTCVVVDVSDEDPEVKFNWYVDGVEVHNAKTKPREEQYNATYRVVSVLTVLHQDWLNGKEYKCKVSNKALPAPIEKTISKAKGQPREPQVCTLPPSRDELTKNQVSLWCLVKGFYPSDIAVEWESNGQPENNYKTTPPVLDSDGSFFLYSKLTVDKSRWQQGNVFSCSVMHEALHNHYTQKSLSLSP
heavy 2: QDQLVQSGAEVKKPGASVKVSCKASGFNIKDTYIQWVRQAPGQGLEWMGRIDPLRKQTKYREKFEGRVTITADTSTNTAYMELSSLRSEDTAVYYCVRSGREFDYWGQGTLVTVSSASTKGPSVFPLAPSSKSTSGGTAALGCLVKDYFPEPVTVSWNSGALTSGVHTFPAVLQSSGLYSLSSVVTVPSSSLGTQTYICNVNHKPSNTKVDKKVEPKSCDKTHTCPPCPAPELLGGPSVFLFPPKPKDTLMISRTPEVTCVVVDVSHEDPEVKFNWYVDGVEVHNAKTKPREEQYNSTYRVVSVLTVLHQDWLNGKEYKCKVSNDALPMPIEETISKAKGQPREPQVYTLPPSRCELTKNQVSLSCAVKGFYPSDIAVEWESNGQPENNYKTTPPVLDSDGSFFLVSKLTVDKSRWQQGNVFSCSVMHEALHNHYTQKSLSLSP
light: DIQMTQSPSSLSASVGDRVTITCRASQDIHKYIAWYQQKPGQAPRLLIQYTSTLQPGVPSRFSGSGSGTDYTFTISSLQPEDIATYYCLQYEQLRTFGGGTKVEIKRTVAAPSVFIFPPSDEQLKSGTASVVCLLNNFYPREAKVQWKVDNALQSGNSQESVTEQDSKDSTYSLSSTLTLSKADYEKHKVYACEVTHQGLSSPVTKSFNRGEC
B5: H240-Kn061 (Y235M)/H240-Hl071/L73-k0 (antibody, human IgG1, kappa)
heavy 1: B4 heavy 1 with S233Y, Y234M
heavy 2: B4 heavy 2
light: B4 light
B6: H240-Kn061 (Y235F)/H240-Hl071/L73-k0 (antibody, human IgG1, kappa)
heavy 1: B4 heavy 1 with S233Y, Y234F
heavy 2: B4 heavy 2
light: B4 light
B7: H240-Kn061 (Y235W)/H240-Hl071/L73-k0 (antibody, human IgG1, kappa)
heavy 1: B4 heavy 1 with S233Y, Y234W
heavy 2: B4 heavy 2
light: B4 light
notes: also called H240-Kn061 Y2351N
B8: H240-Kn061 (Y235N)/H240-Hl071/L73-k0 (antibody, human IgG1, kappa)
heavy 1: B4 heavy 1 with S233Y, Y234N
heavy 2: B4 heavy 2
light: B4 light
B9: H240-Kn061 (Y235E)/H240-Hl071/L73-k0 (antibody, human IgG1, kappa)
heavy 1: B4 heavy 1 with S233Y, Y234E
heavy 2: B4 heavy 2
light: B4 light
B10: H240-Kn061 (Y235L)/H240-Hl071/L73-k0 (antibody, human IgG1, kappa)
heavy 1: B4 heavy 1 with S233Y, Y234L
heavy 2: B4 heavy 2
light: B4 light
B11: H240-Kn061 (Y235T)/H240-Hl071/L73-k0 (antibody, human IgG1, kappa)
heavy 1: B4 heavy 1 with S233Y, Y234T
heavy 2: B4 heavy 2
light: B4 light

The binders below were run against T3, FcγRIa extracellular domain with C-terminal His tag (human, UniProt P12314 16-292) (assay: SPR (Biacore); ratio of He/Con_1a (FcγRIa) to He/Con_2b (FcγRIIb) of the same antibody).
T3 construct: extracellular domain; Soluble receptor expressed in FreeStyle293 cells, used as analyte in Biacore; also called FcgRI; CD64; not shown: His tag at the C terminus
T3 sequence (P12314 16-292): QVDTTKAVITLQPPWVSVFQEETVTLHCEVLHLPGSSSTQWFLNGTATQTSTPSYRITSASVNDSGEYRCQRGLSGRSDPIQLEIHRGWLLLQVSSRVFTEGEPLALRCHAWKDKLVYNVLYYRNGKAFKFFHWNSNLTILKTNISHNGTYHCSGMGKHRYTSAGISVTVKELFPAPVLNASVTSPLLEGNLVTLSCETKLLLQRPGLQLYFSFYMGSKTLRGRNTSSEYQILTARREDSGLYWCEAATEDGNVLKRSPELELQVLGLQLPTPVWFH
With B1 the “Ia/IIb He_1a/2b” value was 1.5. B2 was tested, and the “Ia/IIb He_1a/2b” value was 1.37. For B3, the “Ia/IIb He_1a/2b” value was 6.71.

The binders below were run against T1, FcγRIIb extracellular domain with … (assay: SPR (Biacore), antibody captured via antigen peptide, FcγR as analyte; binding relative to GpH7-A5/GpH7-B3/GpL16-k0 = 100).
With B1 the He/Con_2b was 51.4 % of control (GpH7-A5/GpH7-B3/GpL16-k0 = 100). With B2 the He/Con_2b was 70.4 % of control (GpH7-A5/GpH7-B3/GpL16-k0 = 100).

Each binder was assayed against T3, FcγRIa extracellular domain with … in the same assay as above.
B1 was tested, and the He/Con_1a was 77.3 % of control (GpH7-A5/GpH7-B3/GpL16-k0 = 100). With B2 the He/Con_1a was 96.6 % of control (GpH7-A5/GpH7-B3/GpL16-k0 = 100). For B3, the He/Con_1a was 65.8 % of control (GpH7-A5/GpH7-B3/GpL16-k0 = 100).

What follows are binders tested against T2, FcgRIIb (assay: SPR (Biacore); KD of H240-Kn061/H240-Hl071/L73-k0 divided by KD of the variant).
Description: (§1) The antibodies were assessed for the binding to each FcgR. […] The resultant value was defined as relative KD, and used as an assessment indicator.
(§2) Analysis of interaction between obj ective antibody and the FcγR was carried out using Biacore T100 (GE Healthcare), Biacore T200, Biacore A100, and Biacore 4000. HBS-EP+ (GE Healthcare) was used as the running buffer, and the measurement temperature was set to 25° C. Chips produced by immobilizing the antigen peptide by the amine coupling method to a Series S sensor Chip CM5 (GE Healthcare), chips produced by allowing preliminarily biotinylated antigen peptides to interact with and immobilize onto a Series S Sensor Chip SA (certified) (GE Healthcare), chips produced by immobilizing Protein L (ACTIGEN, BioVision) to Series S Sencor Chip CM5 (GE Healthcare), or chips produced by immobilizing Protein A/G (Thermo Scientific) to Series S Sencor Chip CM5 (GE Healthcare) were used. Antibodies of interest were captured onto these chips, and allowed to interact to each FcγR diluted with running buffer.
With B4 the “Relative KD” value was 1. In the case of B5, the “Relative KD” value is reported as 0.7. With B6 the “Relative KD” value was 1.2. B7 was tested, and the “Relative KD” value was 1.3. For B8, the “Relative KD” value was 0.7. In the case of B9, the “Relative KD” value is reported as 0.8. With B10 the “Relative KD” value was 0.9. With B11 the “Relative KD” value was 0.6.

The binders below were run against T4, FcgRIIIa V (human, UniProt P08637 17-208) in the same assay as above.
T4 construct: extracellular domain; also called FcγRIIIa V; not shown: His tag attached to the C terminus
T4 sequence (P08637 17-208 F176V limits assumed): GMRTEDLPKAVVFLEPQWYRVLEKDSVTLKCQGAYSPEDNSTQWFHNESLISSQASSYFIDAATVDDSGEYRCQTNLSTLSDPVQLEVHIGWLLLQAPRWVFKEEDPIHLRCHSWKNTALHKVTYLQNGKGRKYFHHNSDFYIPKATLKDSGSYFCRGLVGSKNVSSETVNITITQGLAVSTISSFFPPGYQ
Description: as §1, §2
With B4 the “Relative KD” value was 0.9. For B5, the “Relative KD” value was 1.8. In the case of B6, the “Relative KD” value is reported as 1.5. With B7 the “Relative KD” value was 1.3. B8 was tested, and the “Relative KD” value was 2. With B9 the “Relative KD” value was 3.2. B10 was tested, and the “Relative KD” value was 1.5. With B11 the “Relative KD” value was 1.1.

What follows are binders tested against T5, FcgRIIIa F (human, UniProt P08637 17-208) in the same assay as above.
T5 construct: extracellular domain; also called FcγRIIIa F; 3aF; not shown: His tag attached to the C terminus
T5 sequence (P08637 17-208): as the sequence (P08637 17-208 F176V limits assumed) above, with V160F counted along it
Description: as §1, §2
For B4, the “Relative KD” value was 0.9. B5 was tested, and the “Relative KD” value was 1.7. B6 was tested, and the “Relative KD” value was 1.3. In the case of B7, the “Relative KD” value is reported as 1.1. With B8 the “Relative KD” value was 1.3. For B9, the “Relative KD” value was 2.2. With B10 the “Relative KD” value was 1.8. In the case of B11, the “Relative KD” value is reported as 0.9.

Reference: patent US20180155451A1 (published 2018)
